According to patent US12514920B1, “Respiratory syncytial virus mRNA vaccine, and preparation method therefor and use thereof” (Hangzhou Tianlong Pharmaceutical Co., Ltd., priority 2024, dated 2026):
Where a chain is given by its changes, count along the chain named.

B1: YK-RSV-018 (protein)
chain: QNITEEFYCSTCSAVSKGYLGALRTGWYTSVITIELSNIKENKCNGTDAKVKLIKQELDKYKNAVTDLQLLMQSTPATGSGSAICSGVAVSKVLHLEGEVNKIKSALLSTNKAVVSLSNGVSVLTFKVLDLKNYIDKQLLPIVNKQSCSIPNIEIVIEFQQKNNRLLEITREFSVNAGVTTPVSTYMLTNSELLSLINDMPITNDQKKLMSNNVQIVRQQSYSIMSIIKEEVLAYVVQLPLYGVIDTPCWKLHTSPLCTTNTKEGSNICLTRTDRGWYCDNAGSVSFFPQAETCKVQSNRVFCDTMNSRTLPSEVNLCNVDIFNPKYDCKIMTSKTDVSSSVITSLGAIVSCYGKTKCTASNKNRGIIKTFSNGCDYVSNKGVDTVSVGNTLYCVNKQEGQSLYVKCEPIINFYDPLVFPSSEFDASISQVNEKINQSLAFIRKSDELLHNVNAGKSTTNIMITTIIIVIIVILLSLIAVGLLLY
B2: YK-RSV-053 (protein)
chain: B1 chain with C9Q, V143L, I155T, Y242C, C394Y, C407G, S422D
B3: YK-RSV-031 (protein)
chain: B1 chain with F7C, C9Q, C85A, V143L, I155T, C394Y, Y404C, C407G, S422D
B4: YK-RSV-033 (protein)
chain: B1 chain with C9Q, T11C, C85A, V143L, I155T, C394Y, S422D
B5: YK-RSV-041 (protein)
chain: B1 chain with C9Q, S16C, C85A, V143L, I155T, S255C, C394Y, C407G, S422D
B6: YK-RSV-042 (protein)
chain: B1 chain with C9Q, Y19C, C85A, V143L, I155T, S255C, C394Y, C407G, S422D
B7: YK-RSV-022 (protein)
chain: QNITEEFYQSTCSAVSKGYLGALRTGWYTSVITIELSNIKENKCNGTDAKVKLIKQELDKYKNAVTDLQLLMQSTPACGSGSACASGVAVSKVLHLEGEVNKIKSALLSTNKAVVSLSGCGVSVLTFKVLDLKNYIDKQLLPIVNKQSCSIPNIETVIEFQQKNNRLLEITREFSVNAGVTTPVSTYMLTNSELLSLINDMPITNDQKKLMSNNVQIVRQQSYSIMSIIKEEVLAYVVQLPLYGVIDTPCWKLHTSPLCTTNTKEGSNICLTRTDRGWYCDNAGSVSFFPQAETCKVQSNRVFCDTMNSRTLPSEVNLCNVDIFNPKYDCKIMTSKTDVSSSVITSLGAIVSCYGKTKCTASNKCRGIIKTFSNGCDYVSNKGVDTVSVGNTLYYVNKQEGQSLYVKGEPIINFYDPLVFPSSEFDASISQVNEKINQSLAFIRKSDELLHNVNAGKSTTNIMITTIIIVIIVILLSLIAVGLLLY
B8: YK-RSV-004 (protein)
chain: B1 chain with C9Q, S91C, F126I, S149P, P151S, I155T, S226C, C407G
B9: YK-RSV-008 (protein)
chain: B1 chain with C9Q, S30C, C85A, L124C, F126I, I155T, C394Y, C407G
B10: YK-RSV-013 (protein)
chain: B1 chain with C9Q, T78C, I84C, C85A, I155T, C407G

What follows are molecules tested on RSV pre-F antibody (3C12) (assay: Binding of epitope Φ of RSV F antigen mutants by flow cytometry). Settings: binding rate, flow cytometry, 293T cells 16 h after mRNA-LNP transfection.
Excerpt: (§1) To investigate whether the RSV F antigen mutants have pre-fusion epitopes, an RSV pre-F antibody (3C12) (specifically binding to the RSV pre-F epitope […]) and an RSV F antibody (11A9) (binding to pre-F and post-F epitopes II) were detected by flow cytometry in this example, and RSV F protein mutants in the pre-F conformation were expected to bind to the antibodies tested.
(§2) • 293T cells (purchased from ATCC cell bank); RSV pre-F antibody (3C12), epitope […] (Novoprotein, Cat. No.: DA101); RSV F antibody (11A9), epitope II (Novoprotein, Cat. No.: DA091); • experimental groups: mRNA vaccines corresponding to the expressed antigens in Example 3;
(§3) • (1) Cell transfection: 293T cells were seeded at 1.3×10^5 cells/well in a 24-well plate. The next day, mRNA-LNP samples (containing 300 ng of mRNA) were added directly to the cells, and the mixture was uniformly mixed. • (2) Cell collection: The cells were taken out of the incubator after 16 h of transfection, the medium was pipetted off, 500 μL of 0.1% BSA solution was pipetted to wash the medium remaining in the well plate, taking care not to resuspend the cells, and the 0.1% BSA solution was pipetted off. 500 μL of 0.1% BSA solution was added to each well, and the cells were pipetted and transferred to a 1.5 mL centrifuge tube. • (3) Centrifugation: The cells were harvested by centrifugation at 400 g for 5 min at 4° C. in the dark, and the supernatant was discarded. • (4) Straining: 50.6 μL of RSV fluorescent antibody diluent was added to each of the control sample and the test samples to resuspend the cells, and the samples were incubated at 4° C. for 2 h in the dark. • (5) Cleaning: After the incubation was completed, 500 μL of 0.1% BSA solution was added to each tube, the cells were harvested by centrifugation at 400 g for 5 min at 4° C. in the dark, and the supernatant was discarded. This operation was repeated three times. • (6) Resuspension of cells: 200 μL of 0.1% BSA solution was added to each sample, and the cells were carefully pipetted to prepare a cell suspension. • (7) Detection on flow cytometer: The […] of RSV F mutants to antibodies were measured using flow cytometry, with 1×10^4 cells detected in each measurement.
(§4) The RSV pre-F antibody (3C12) used in this example specifically binds to the RSV pre-F epitope Φ, and the RSV F antibody (11A9) binds to the pre-F and post-F epitopes II. Whether the pre-fusion conformations of the RSV F mutants are stable can be further determined by detecting the binding of the epitope Φ and the epitope II on the mutants to corresponding epitopes of antibodies 3C12 and 11A9, respectively, by flow cytometry.
B1 was tested, and the “RSV pre-F antibody (3C12) Epitope Φ (%)” value was 68.4%.
With B2 the “RSV pre-F antibody (3C12) Epitope Φ (%)” value was 40.0%.
With B3 the “RSV pre-F antibody (3C12) Epitope Φ (%)” value was 75.5%.
B4 was tested, and the “RSV pre-F antibody (3C12) Epitope Φ (%)” value was 72.0%.
B5 was tested, and the “RSV pre-F antibody (3C12) Epitope Φ (%)” value was 73.7%.
With B6 the “RSV pre-F antibody (3C12) Epitope Φ (%)” value was 49.8%.
For B7, the “RSV pre-F antibody (3C12) Epitope Φ (%)” value was 0.2%.

Same assay, conditions: flow cytometry; epitope Φ, antibody 3C12
In the case of B8, the “RSV pre-F antibody (3C12) Epitope Φ (%) binding rate” value is reported as 82.1%.
For B9, the “RSV pre-F antibody (3C12) Epitope Φ (%) binding rate” value was 83.9%.
With B10 the “RSV pre-F antibody (3C12) Epitope Φ (%) binding rate” value was 89.3%.

Same assay, conditions: ratio of epitope Φ (3C12) to epitope II (11A9) binding rate
With B8 the “Φ/II (%)” value was 91.1%.
In the case of B9, the “Φ/II (%)” value is reported as 90.7%.
For B10, the “Φ/II (%)” value was 94.7%.
For B1, the “Φ/II (%)” value was 89.6%.
In the case of B2, the “Φ/II (%)” value is reported as 59.7%.
In the case of B3, the “Φ/II (%)” value is reported as 90.5%.
B4 was tested, and the “Φ/II (%)” value was 87.4%.
With B5 the “Φ/II (%)” value was 90.4%.
With B6 the “Φ/II (%)” value was 81.5%.
In the case of B7, the “Φ/II (%)” value is reported as 9.5%.

The molecules below were run on RSV pre-F antibody (3C12) (assay: not given). Settings: high osmotic pressure 3000 mM, room temperature, 60 min; ELISA binding to 3C12.
Type: physicochemical
Excerpt: To investigate the stability of the RSV F antigen mutants under different pH, temperature, osmotic pressure and other conditions, the mutants were subjected to stress tests under different treatment conditions in this example.
• 293T cells (purchased from ATCC cell bank); • Primary antibody: RSV pre-F antibody (3C12), epitope Φ (purchased from Suzhou Novoprotein Scientific Co., Ltd. (hereinafter referred to as Novoprotein), Cat. No.: DA101); • Standard: RSV pre-F trimer protein (Novoprotein, Cat. No.: DRA230); • Secondary antibody: peroxidase AffiniPure goat anti-human IgG (H+L) (purchased from Yeasen Biotechnology (Shanghai) Co., Ltd. (hereinafter referred to as Yeasen), Cat. No.: N/A); • Experimental group: mRNA vaccines after screening in Example 4;
Coating: A 96-well microplate was coated with a working solution and incubated at 2 to 8° C. for 16 to 20 h.
Plate washing: Phosphate buffered saline PBST was added to each well, and the plate was washed 5 times using a plate washer and patted dry on absorbent paper.
Blocking: After a blocking solution was added, the […] were placed on a constant temperature microplate shaker and incubated at 400 rpm for 1.5 h at 37° C.
Plate washing: PBST was added to each well, and the plate was washed 5 times using a plate washer and patted dry on absorbent paper.
Primary antibody incubation: A primary antibody dilution was added to each well, and the plate was sealed with a sealing film, and then incubated at 400 rpm for 1.5 h at 37° C.
Secondary antibody incubation: A secondary antibody dilution was added to each well, and the plate was sealed with a sealing film, and then incubated at 400 rpm for 45 min at 37° C.
Color development: A chromogenic solution was added, and the plate was sealed with a sealing film, and then placed on a constant temperature microplate shaker and incubated at 400 rpm for 25 min at 37° C.
Reaction stopping: After the color development was completed, a stop buffer was added at […] to the microplate to stop the reaction.
Plate reading: Absorbance values (OD values) were read within 5 min using a multimode microplate reader, with dual wavelengths of 450 nm and 630 nm set.
In this example, stability screening of the mutants through different treatment conditions was defined as a stress test, including storage at 4° C. for one week; incubation at 50° C. for 60 min; treatment at room temperature under low osmotic pressure and high osmotic pressure conditions for 60 min; treatment at room temperature under acid and base conditions for 60 min. The binding of the mutants to the RSV pre-F antibody (3C12) recognizing the epitope Φ was detected by ELISA.
In the case of B8, the “Stress resistance parameter, Osmotic pressure (mM) 3000” value is reported as 0.46 ± 0.13.
For B9, the “Stress resistance parameter, Osmotic pressure (mM) 3000” value was 0.33 ± 0.02.
B10 was tested, and the “Stress resistance parameter, Osmotic pressure (mM) 3000” value was 0.43 ± 0.04.

Same assay, conditions: incubation at 50° C. for 60 min; ELISA binding to 3C12
In the case of B8, the “Stress resistance parameter, Temperature (° C.) 50” value is reported as 0.48 ± 0.05.
B9 was tested, and the “Stress resistance parameter, Temperature (° C.) 50” value was 0.45 ± 0.08.
For B10, the “Stress resistance parameter, Temperature (° C.) 50” value was 0.91 ± 0.23.

Same assay, conditions: low osmotic pressure 10 mM, room temperature, 60 min; ELISA binding to 3C12
In the case of B8, the “Stress resistance parameter, Osmotic pressure (mM) 10” value (“Stress resistance parameter … (mM) 10” for short) is reported as 0.91 ± 0.23.
For B9, the “Stress resistance parameter … (mM) 10” value was 0.81 ± 0.09.
B10 was tested, and the “Stress resistance parameter … (mM) 10” value was 0.59 ± 0.08.

Same assay, conditions: pH 3.5, room temperature, 60 min; ELISA binding to 3C12
B8 was tested, and the “Stress resistance parameter, pH 3.5” value was 0.97 ± 0.21.
B9 was tested, and the “Stress resistance parameter, pH 3.5” value was 0.76 ± 0.21.
In the case of B10, the “Stress resistance parameter, pH 3.5” value is reported as 0.84 ± 0.19.

Same assay, conditions: pH 10, room temperature, 60 min; ELISA binding to 3C12
In the case of B8, the “Stress resistance parameter, pH 10” value is reported as 1.00 ± 0.27.
For B9, the “Stress resistance parameter, pH 10” value was 0.99 ± 0.19.
B10 was tested, and the “Stress resistance parameter, pH 10” value was 0.92 ± 0.04.

Same assay, conditions: storage at 4° C. for one week; ELISA binding to 3C12
For B8, the “Stress resistance parameter, Temperature (° C.) 4” value was 0.72 ± 0.06.
For B9, the “Stress resistance parameter, Temperature (° C.) 4” value was 0.65 ± 0.06.
B10 was tested, and the “Stress resistance parameter, Temperature (° C.) 4” value was 0.69 ± 0.11.

These molecules were tested on RSV F antibody (11A9) (assay: Binding of epitope II of RSV F antigen mutants by flow cytometry). Settings: binding rate, 293T cells 16 h after mRNA-LNP transfection.
Excerpt: as §1, §2, §3, §4
B1 was tested, and the “RSV F antibody (11A9) Epitope II (%)” value was 76.3%.
In the case of B2, the “RSV F antibody (11A9) Epitope II (%)” value is reported as 67.0%.
In the case of B3, the “RSV F antibody (11A9) Epitope II (%)” value is reported as 83.4%.
B4 was tested, and the “RSV F antibody (11A9) Epitope II (%)” value was 82.4%.
In the case of B5, the “RSV F antibody (11A9) Epitope II (%)” value is reported as 81.5%.
B6 was tested, and the “RSV F antibody (11A9) Epitope II (%)” value was 61.1%.
In the case of B7, the “RSV F antibody (11A9) Epitope II (%)” value is reported as 2.1%.

Same assay, conditions: epitope II, antibody 11A9
B8 was tested, and the “RSV F antibody (11A9) Epitope II (%) binding rate” value (from here on “RSV F antibody … (%) binding rate”) was 90.1%.
With B9 the “RSV F antibody … (%) binding rate” value was 92.5%.
With B10 the “RSV F antibody … (%) binding rate” value was 94.3%.
